How the values were obtained:
PAD 2 = assay: Modulation of intracellular calcium and PAD 2 expression in pressure treated astrocytes; type: cell-based, rat; conditions: astrocytes subjected to 40 mm Hg for 5 hours; 50-200 nM
Procedure: FIGS. 9A-9B. Modulation of intracellular calcium concentration and PAD 2 expression. The astrocytes were subjected to 40 mm Hg for 5 hours and restored to normal pressure except controls. Pressure treated cells were subjected to (FIG. 9A) indicated concentrations of BAPTA-AM for 24 hours or (FIG. 9B) indicated concentrations of Thapsigargin. Total protein were extracted and transferred on PVDF membrane after SDS-PAGE separation and probed with antibodies to PAD 2 and GPDH, secondary antibodies coupled with IR-700 dye allowed scanning and detection.
Astrocytes from Sprague Dawley rats (Harlan, Indianapolis, Ind.) brain cortex were used for these studies. Mixed glial cell suspensions were prepared from the P3 rat cortex regions following published procedures (Fuss, B., et al., Dev Biol., 218:259-74 (2000)) from which enriched GFAP positive cells were obtained using immunopanning (Yang, P., et al., Brain Res Brain Res Protoc. 12:67-76 (2003)). The astrocytes were exposed to a pressure of 40 mm of Hg for five hours (Yang, J. L., et al., Exp Eye Res. 56:567-74 (1993); Salvador-Silva, M., et al., Glia. 45:364-77 (2004)). Briefly, the cells plated in six well plates (Costar, Cambridge, Mass., USA) at a density of 3-10×10^3 cells/well and grown to semiconfluence in 2 days were incubated with serum free medium overnight. […]

PAD2 [1] = assay: Anti-PAD2 Western analysis of optic nerve from glaucomatous donors; type: in vivo, human; conditions: 85M POAG donor, trabeculectomy plus verapamil; compared with other POAG eyes (86M and 76F)
Procedure: FIGS. 5A-5D. Elevated level of PAD2 and citrulline in response to pressure. […] Protein extracted from the optic nerve of cadaver Caucasian donor eyes, age and gender are as indicated. All glaucomatous donors suffered elevated IOP and were subjected to surgical intervention except the 76F donor. The 85M donor also received verapamil, a calcium modulator. FIG. 5B, Representative Western analyses with anti-PAD2 of rat brain astrocytes subjected to 40 mm Hg pressure for 5 h then returned to atmospheric pressure for up to 4 days as indicated. FIG. 5C, Representative Western analysis with anti-citrulline of protein extracts (5 μg) from astrocytes subjected to elevated pressure as in FIG. 5B. […]
For these analyses previously described mouse monoclonal antibody (mAb) against PAD2 (Koike, H., et al., Biosci Biotechnol Biochem. 58:2286-7(1994); Koike, H., et al., Biosci Biotechnol Biochem. 59:552-4(1995)) was used. […] For quantitative Western analyses, anti-mouse and anti-rabbit secondary antibody linked to 700 nm or 800 nm IR-dyes were used on an Odyssey Infrared Imaging system according to the manufacturer (Li-Cor Biosciences, Lincoln, Neb.). […]
Other donor eyes that had undergone either surgical or combined surgical and pharmacological intervention to relieve elevated IOP were also analyzed for PAD2. […]

PAD2 [2] = type: cell-based, rat
Procedure: Astrocytes from Sprague Dawley rats (Harlan, Indianapolis, Ind.) brain cortex were used for these studies. Mixed glial cell suspensions were prepared from the P3 rat cortex regions following published procedures (Fuss, B., et al., Dev Biol., 218:259-74 (2000)) from which enriched GFAP positive cells were obtained using immunopanning (Yang, P., et al., Brain Res Brain Res Protoc. 12:67-76 (2003)). The astrocytes were exposed to a pressure of 40 mm of Hg for five hours (Yang, J. L., et al., Exp Eye Res. 56:567-74 (1993); Salvador-Silva, M., et al., Glia. 45:364-77 (2004)). Briefly, the cells plated in six well plates (Costar, Cambridge, Mass., USA) at a density of 3-10×10^3 cells/well and grown to semiconfluence in 2 days were incubated with serum free medium overnight. A closed pressurized chamber (5% carbon dioxide) equipped with a manometer was used to subject the cells to elevated pressure. Cells were placed in the chamber and the pressure was elevated to 40 mm Hg. The chamber was subsequently placed in a tissue culture incubator at 37° C. Control cells from identical passage of cell lines were simultaneously incubated in a tissue culture incubator at atmospheric pressure at 37° C. The cells were incubated for 5 h or 1-4 days after pressure treatment. After incubation, cells were trypsinized and subjected to culture or Western analyses. For culture, the cells were plated on a cover slip and allowed 16 hours recovery period and subjected to immunohistochemistry using mouse monoclonal PAD2 and rabbit polyclonal GFAP antibodies. The cells were permeabilized with 200 μl of 0.2% Triton X-100 in phosphate buffer saline pH 7.5 for 1 hour after fixation with 4% paraformaldehyde for 1 hour. Western analyses were performed using antibodies to PAD2 and citrulline as described above.
For treatment of rat cortex astrocytes, shRNA against PAD2 (OpenBiosystems, Cat. #RHS 1764-9214220) was procured from OpenBiosystems in pShag Magic version 2.0 vector (OpenBiosystems). This shRNA contains the sequence (5′[…]′3) (SEQ ID NO: 7) from the coding region of PAD2 (see FIG. 14). For a negative control, we used a non-silencing shRNA sequence cloned into pShag Magic 2.0 (OpenBiosystems, cat. #RHS1703) from OpenBiosystems verified to contain no homology to known mammalian genes. About 30% confluent cells (3000 primary astrocytes) (Lee, J. H., et al., Glia., 50:66-79 (2005)) were transfected using SuperFect transfection reagent, purified vector (5 μg) DNA (Qiagen, Valencia, Calif.) and the manufacturer's recommended protocols. The post transfected astrocytes were selected on geneticin (10 μg/μl). The primary astrocytes were subjected to pressure (40 mm of Hg) and transfected with shRNA on plates immediately after they were brought to normal atmospheric pressure.

[3] = astrocytes subjected to 40 mm Hg, transfected with shRNA immediately after return to atmospheric pressure, vs non-specific shRNA

In the case of CC(=O)OCOC(=O)CN(CC(=O)OCOC(C)=O)c1ccccc1OCCOc1ccccc1N(CC(=O)OCOC(C)=O)CC(=O)OCOC(C)=O [BAPTA-AM], the “expression of PAD 2 protein (Western)” value (PAD 2) is reported as “reduces expression of PAD 2 protein”.

In the case of C/C=C(/C)C(=O)O[C@H]1C(C)=C2[C@H]([C@@H]1OC(=O)CCCCCCC)[C@@](C)(OC(C)=O)C[C@H](OC(=O)CCC)[C@@]1(O)[C@H]2OC(=O)[C@@]1(C)O [Thapsigargin], the “expression of PAD 2 protein (Western)” value (PAD 2) is reported as “seems not to show a great increase in PAD 2 expression”.

With COc1ccc(CCN(C)CCCC(C#N)(c2ccc(OC)c(OC)c2)C(C)C)cc1OC (centres unmarked) [verapamil] the “optic nerve PAD2 level (Western, relative to GPDH)” value (PAD2 [1]) was “appeared lower”.

B1: PAD2 specific shRNA: shRNA against PAD2 (OpenBiosystems, Cat. #RHS 1764-9214220) in pShag Magic version 2.0 vector, SEQ ID NO: 7 (nucleic acid)
chain: TGCTGTTGACAGTGAGCGACAGCCTTGACTCATTTGGAAATAGTGAAGCCACAGATGTATTTCCAAATGAGTCAAGGCTGGTGCCTACTGCCTCGGA
With B1 the “Differences in cell morphology due to reduction in mRNA” value (PAD2 [2]) was “not observed”, the “PAD2 expression (anti-PAD2 Western analysis)” value (PAD2 [2]; [3]) was “reduced PAD2 expression” and the “citrullination (anti-citrulline Western analysis)” value (PAD2 [2]; [3]) was “reduced citrullination”. For the same molecule, the “PAD 2 by immunohistochemical analysis” value (PAD2 [2]; isolated astrocytes, 5 hours or 4 days at atmospheric pressure after 40 mm Hg, compared to untreated group) was “reduced” and the “PAD2 mRNA (Northern analysis of total RNA)” value (PAD2 [2]; pressure treated astrocytes transfected with shRNA, within the sensitivity of detection) was “completely removed”.

Source: patent US20110003880A1, “Compositions and methods for inhibiting optic nerve damage” (priority 2006, published 2011)
